The target in assay [1] is CCR7 (Homo sapiens). Put plainly: nanoDSF. The following applies: cited from earlier work.
The target in assay [2] is CCR7 N-terminus (Homo sapiens) (UniProt P32248). As to the kind of experiment: nanoDSF. The following applies: cited from earlier work. On the technique in general: Differential scanning fluorimetry follows unfolding on heating by fluorescence.
For assay [3], the target named is CCR7 (Homo sapiens). Put plainly: nanoDSF. The following applies: cited from earlier work. This is another data set of the same source.
Assay [4] addresses CCR7 (Homo sapiens). As to the kind of experiment: NMR. Conditions: cited from earlier work.
In assay [5] the target is T1, Recombinant human [U-15N] CCL19 (human, UniProt Q99731 22-98, uniformly 15N-labelled ([U-15N])).
T1 sequence (looked up): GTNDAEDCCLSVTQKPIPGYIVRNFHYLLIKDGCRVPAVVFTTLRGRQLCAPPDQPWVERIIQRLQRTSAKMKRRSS
As to the kind of experiment: NMR titration.

Ends that are not written are not given here. A value given as a limit tells only on which side of the number the result lay.

What is called Kd is the concentration at which binding is half-saturated.

Sequence of CCL21 (O00585 24-134): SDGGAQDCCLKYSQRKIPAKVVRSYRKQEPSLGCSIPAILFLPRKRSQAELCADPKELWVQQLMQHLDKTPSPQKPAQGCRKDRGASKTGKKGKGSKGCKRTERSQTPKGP
Sequence of CCR7 N-terminus (Homo sapiens) (P32248 25-59): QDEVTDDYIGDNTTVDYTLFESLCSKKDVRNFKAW

Take CCL19 (from UniProt Q99731): the values for the dissociation constant Kd (with CCR7 (Homo sapiens) [1]; in assay [2]; in the assay with CCR7 (Homo sapiens) [3]) were 0.8 µM, above 1 µM and 0.3 µM, respectively.
Consider CCL21 (from UniProt O00585), for which the Kd with CCR7 (Homo sapiens) [4] is 700 µM.
Take TDDYIGD-NH2 [CCR7 5-11 peptide (TDDYIGD-NH2)]: in assay [5], the Kd stood at 200 ± 100 µM.
